Patent US6953577B2, “Human methionine aminopeptidase type 3” (Pharmacia Corporation, priority 1999, dated 2005)

Tested on: CSCC[C@H](N)C(=O)N[C@@H](C)C(=O)N[C@@H](CO)C(=O)O
Experiment: purified protein, by the assay type
Conditions: other: hydrolysis of methionine from MAS peptide substrate; pH 7.5
Experimental: Hydrogen peroxide, produced by the L-amino acid oxidase reaction, was measured by monitoring the formation of resorufin from Amplex Red in a reaction catalyzed by of horseradish peroxidase. […] The reaction was performed in a 96-well plate format at ambient temperature using the following assay buffer: 20 mM HEPES-Na pH 7.5, 100 mM NaCl, 0.1 mM CoCl2 containing 100 μM Amplex Red, 0.15 U/ml L-amino acid oxidase, 0.5 U/ml horseradish peroxidase.
The IC50 values were determined under conditions in which enzyme concentration and reaction time were linear.

**Q.** For “recombinant human MetAP-1 (Homo sapiens)”, which Km is on record?
**A.** 8.5 mM

**Q.** What about the kcat of the same substance?
**A.** 0.75 s⁻¹
